Measured values from patent publication US7037670B2, “Peptide substrates for assay of extracellular signal-regulated protein kinase 1 and 2 activity” (Board of Supervisors of Louisiana State University and …, priority 2002, dated 2006).
Like-named read-outs stand apart in the source and are kept apart here. One block for each molecule: values may come before it. Ends that are not written are not given here.

Experiments:
ERK2 [1] = target: T1, ERK2 (Rattus norvegicus, UniProt P63086); test: Steady-state kinetic analyses of peptide substrates for ERK2; format: biochemical; settings: for Kmin(app) / Vmax(app) Relative: median of three determinations; for Vmax(app) Relative: relative values
T1 sequence (P63086 2-358 limits assumed): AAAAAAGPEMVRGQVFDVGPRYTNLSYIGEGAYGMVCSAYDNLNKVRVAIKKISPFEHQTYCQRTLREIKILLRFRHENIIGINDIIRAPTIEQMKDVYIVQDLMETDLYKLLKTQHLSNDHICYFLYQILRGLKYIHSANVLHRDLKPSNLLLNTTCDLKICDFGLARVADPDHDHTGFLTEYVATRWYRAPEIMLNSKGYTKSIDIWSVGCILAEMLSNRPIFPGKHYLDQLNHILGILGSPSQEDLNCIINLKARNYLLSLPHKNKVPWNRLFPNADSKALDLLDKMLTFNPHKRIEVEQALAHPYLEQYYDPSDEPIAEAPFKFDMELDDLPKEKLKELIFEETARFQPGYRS
Description: (§1) ERK activity assays: Aliquots of supernatants or ERK1/2 immunoprecipitates (suspended in lysis solution) were mixed with substrate (1 mM final, unless stated otherwise) at 4° C. Phosphorylation reactions were initiated by addition of an equal volume of assay buffer containing [γ-^32P]ATP (NEN Life Sciences Products, now PerkinElmer Life Sciences, Boston, Mass.) and Mg^++ and allowed to proceed for 10 min at 30° C., after which duplicate 20 μl aliquots were spotted onto Whatman P81 paper. As would be predicted by the presence of multiple basic residues in the peptides, the ability of P81 paper to bind >90% of each of the peptides used in Tables 2 and 3 was confirmed by UV detection following RP-HPLC. The final reaction mixtures (50 μl) contained 50 mM β-glycerophosphate, 10 mM MgCl2, 1 mM EGTA, 1 mM dithiothreitol, 1 mM benzamidine, 0.1 mM ATP, 0.1 mM Na3VO4, 10 μM calmidazolium, 2 μM peptide inhibitor of cyclic AMP-dependent protein kinase ([…], SEQ ID NO: 24), 10 μg/ml leupeptin, and 0.025% Tween 20.
In Table 5, each value represents the median of three independent determinations, performed in duplicate. […] See I. Kameshita et al., 1997. […] 355, pp. 5641-5646 (1996); see also C. N. Prowse et al., “Catalytic reaction pathway for the mitogen-activated protein kinase ERK2,” Biochem., vol. 39, pp. 6258-6266 (2000).

ERK1/2 = test: In vitro kinase assay on PC12 cellular extracts with no further purification (with and without nerve growth factor); format: biochemical, rat; settings: for pattern and degree of ERK activation over time compared with ERK immunoprecipitation and blot immunolabeling assays: PC12 cells with and without NGF, up to 480 min, extracts without purification
Description: Cells were treated with or without added 100 ng/ml 7S nerve growth factor for up to 8 h. One group of cells was harvested for blot immunolabeling and solubilized with sodium dodecyl sulfate solution, as described in J. W. Haycock, “Multiple forms of tyrosine hydroxylase in human neuroblastoma cells: Quantitation with isoform-specific antibodies,” J. Neurochem., vol. […] A second group of cells was harvested for kinase assays and subjected to trituration in an ice-cold lysis solution of 50 mM β-glycerophosphate, 1 mM EGTA, 1 mM dithiothreitol, 1 mM benzamidine (Eastman Kodak Co., Rochester, N.Y.), 0.1 mM Na3VO4, 10 μg/ml leupeptin, and 0.05% Tween 20. Supernatants from the latter samples were generated by sonication and centrifugation (20 min at 10,000×g) in a refrigerated centrifuge (Savant, Farmingdale, N.J.). In some experiments, ERK1/2 was isolated prior to assaying kinase activity by immunoprecipitation of the PC12 cellular extracts with anti-pan ERK1/2 and protein A-Sepharose. […] ERK activity assays: Aliquots of supernatants or ERK1/2 immunoprecipitates (suspended in lysis solution) were mixed with substrate (1 mM final, unless stated otherwise) at 4° C. Phosphorylation reactions were initiated by addition of an equal volume of assay buffer containing [γ-^32P]ATP (NEN Life Sciences Products, now PerkinElmer Life Sciences, Boston, Mass.) and Mg^++ and allowed to proceed for 10 min at 30° C., after which duplicate 20 μl aliquots were spotted onto Whatman P81 paper. […] Experiments were conducted to test the ability of different substrates to assay for activation of ERK1/2 in situ. […] Cells were harvested and-assayed for ERK1/2 activity by various methods.

ERK2 [2] = target: T1, ERK2; settings: described previously by Robinson et al., 1996; cited from earlier work
ERK2 [3] = target: T1, ERK2; test: Phosphorylation of TH Ser31-containing peptides by purified, recombinant, activated ERK2; format: biochemical; settings: for RELATIVE 32P INCORPORATION (% 3.3 μmol/min/mg): substrate 1 mM, median of three determinations; for RELATIVE 32P INCORPORATION (% 3.0 μmol/min/mg) Mean: mean of four determinations
Excerpt: Materials: Purified peptides were obtained from Sigma (St. Louis, Mo.) or custom synthesized by Louisiana State University Health Science Center Core Laboratories (New Orleans La.). Purified, activated ERK1 was a gift from Dr. M. H. Cobb (University of Texas Southwestern Medical Center, Dallas, Tex.). Purified, recombinant, activated ERK2 was a gift from Dr. N. G. Ahn (University of Colorado, Boulder, Colo.). Except as indicated below, other materials were purchased from Sigma. The new synthetic peptides modeled after […] in human tyrosine hydroxylase are indicated. ERK activity assays: Aliquots of supernatants or ERK1/2 immunoprecipitates (suspended in lysis solution) were mixed with substrate (1 mM final, unless stated otherwise) at 4° C. Phosphorylation reactions were initiated by addition of an equal volume of assay buffer containing [γ-^32P]ATP (NEN Life Sciences Products, now PerkinElmer Life Sciences, Boston, Mass.) and Mg^++ and allowed to proceed for 10 min at 30° C., after which duplicate 20 μl aliquots were spotted onto Whatman P81 paper. As would be predicted by the presence of multiple basic residues in the peptides, the ability of P81 paper to bind >90% of each of the peptides used in Tables 2 and 3 was confirmed by UV detection following RP-HPLC. The final reaction mixtures (50 μl) contained 50 mM β-glycerophosphate, 10 mM MgCl2, 1 mM EGTA, 1 mM dithiothreitol, 1 mM benzamidine, 0.1 mM ATP, 0.1 mM Na3VO4, 10 μM calmidazolium, 2 μM peptide inhibitor of cyclic AMP-dependent protein kinase ([…] ID NO: 24), 10 μg/ml leupeptin, and 0.025% Tween 20. Table 3 indicates the relative phosphorylation of TH-[…]-containing peptides by purified ERK2. […] These new substrates were assayed for the relative phosphorylation by purified ERK2 similar to the experiments that generated Table 3.

ERK1 = ERK1 (Rattus norvegicus, UniProt P21708); test: Phosphorylation of substrates by purified, activated ERK1 (32P incorporation, P81 paper); format: biochemical; settings: peptides 1 mM, MBP 20 μM, 10 min at 30° C., median of three determinations
Sequence of ERK1 (P21708 2-380 limits assumed): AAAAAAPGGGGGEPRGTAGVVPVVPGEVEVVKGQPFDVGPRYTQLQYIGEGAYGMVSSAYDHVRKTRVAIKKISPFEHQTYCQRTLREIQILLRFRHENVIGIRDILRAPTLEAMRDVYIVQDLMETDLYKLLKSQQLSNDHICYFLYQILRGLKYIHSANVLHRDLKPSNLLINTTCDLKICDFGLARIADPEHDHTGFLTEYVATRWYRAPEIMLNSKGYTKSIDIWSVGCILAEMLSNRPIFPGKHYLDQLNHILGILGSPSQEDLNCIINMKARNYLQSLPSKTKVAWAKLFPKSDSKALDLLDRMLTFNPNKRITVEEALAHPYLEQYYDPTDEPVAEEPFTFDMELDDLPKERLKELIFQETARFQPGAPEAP
Excerpt: Materials: Purified peptides were obtained from Sigma (St. Louis, Mo.) or custom synthesized by Louisiana State University Health Science Center Core Laboratories (New Orleans La.). Purified, activated ERK1 was a gift from Dr. M. H. Cobb (University of Texas Southwestern Medical Center, Dallas, Tex.). Purified, recombinant, activated ERK2 was a gift from Dr. N. G. Ahn (University of Colorado, Boulder, Colo.). Except as indicated below, other materials were purchased from Sigma. The new synthetic peptides modeled after Ser31 in human tyrosine hydroxylase are indicated.
as §1
To test the effectiveness of various peptide substrates, peptide substrates were compared with myelin basic protein (“MBP,” SEQ ED NO: 1) for relative ability to be phosphorylated by purified ERK1 or ERK2. The ERK activity assay was as described above in Example 1. In Table 2, each value represents the median of three independent determinations, performed in duplicate. While all peptides were assayed at a concentration of 1 mM, MBP phosphorylation—given as a frame of reference at a concentration typically used in such assays—was assayed at 20 μM. ^32P incorporation into MBPtide (SEQ ID NO: 2) was 330 nmol/min/mg under the assay conditions used.

ERK2 [4] = target: T1, ERK2; settings: stated for MBP protein as contrast to the peptides; cited from earlier work

Molecule: ATGPLSPGPFGRR (ATGPLSPFGRR; This sequence is ERKtide.) [SEQ ID NO: 23]
- apparent Vmax (ERK2 [1]): 9.4 µmol/min/mg
- Kmin(app) (ERK2 [1]): 0.6 mM
- Vmax(app) Relative (ERK2 [1]): 82
- pattern and degree of ERK activation over time compared with ERK immunoprecipitation and blot immunolabeling assays (ERK1/2): faithfully reproduced
- Km (ERK2 [2]): 450 µM

Molecule: RRELVEPLTPSGEA (This sequence is EGF Receptor (Thr669).) [SEQ ID NO: 3]
- RELATIVE 32P INCORPORATION (% OF MBP) (ERK1): 13 % OF MBP

Molecule: YQATGPLSPGFRR-NH2 [SEQ ID NO: 18]
- RELATIVE 32P INCORPORATION (% 3.0 μmol/min/mg) Mean (ERK2 [3]): 215 % 3.0 μmol/min/mg

Molecule: AVTSPRFIGRR (This sequence is based on TH-Ser31 (rat).) [SEQ ID NO: 8]
- RELATIVE 32P INCORPORATION (% 3.3 μmol/min/mg) (ERK2 [3]): 9 % 3.3 μmol/min/mg

Molecule: RRAVSEQDAK (This sequence is TH (rat) Ser19.) [SEQ ID NO: 5]
- RELATIVE 32P INCORPORATION (% OF MBP) (ERK1): <1 % OF MBP

Molecule: EAIMVRGQSPRFK (This sequence is based on TH-Ser31 type 2 HUMAN.) [SEQ ID NO: 22]
- RELATIVE 32P INCORPORATION (% 3.3 μmol/min/mg) (ERK2 [3]): 2 % 3.3 μmol/min/mg

Molecule: EAVTSPRFIGRR (This sequence is based on TH-Ser31 (rat).) [SEQ ID NO: 9]
- RELATIVE 32P INCORPORATION (% 3.3 μmol/min/mg) (ERK2 [3]): 20 % 3.3 μmol/min/mg

Molecule: QATGPLSPGFRR-NH2 [SEQ ID NO: 19]
- RELATIVE 32P INCORPORATION (% 3.0 μmol/min/mg) Mean (ERK2 [3]): 182 % 3.0 μmol/min/mg

Molecule: QATGPLSPGPFRR-NH2 [SEQ ID NO: 17]
- RELATIVE 32P INCORPORATION (% 3.0 μmol/min/mg) Mean (ERK2 [3]): 143 % 3.0 μmol/min/mg

Molecule: EAIMSPRFK (This sequence is based on TH-31 type 1 HUMAN.) [SEQ ID NO: 10]
- RELATIVE 32P INCORPORATION (% 3.3 μmol/min/mg) (ERK2 [3]): 21 % 3.3 μmol/min/mg
- Kmin(app) (ERK2 [1]): 1.4 mM
- Vmax(app) Relative (ERK2 [1]): 42

Molecule: QAEAIMSPRFGRR-NH2 [SEQ ID NO: 15]
- RELATIVE 32P INCORPORATION (% 3.0 μmol/min/mg) Mean (ERK2 [3]): 107 % 3.0 μmol/min/mg

Molecule: YIMVRGQSPR (This sequence is based on TH-Ser31 type 2 HUMAN.) [SEQ ID NO: 21]
- RELATIVE 32P INCORPORATION (% 3.3 μmol/min/mg) (ERK2 [3]): 1 % 3.3 μmol/min/mg

Molecule: YQAEAIMSPRFIGRRQ (This sequence is new and based on TH-31 type 1 HUMAN.) [SEQ ID NO: 13]
- RELATIVE 32P INCORPORATION (% 3.0 μmol/min/mg) Mean (ERK2 [3]): 100 % 3.0 μmol/min/mg
- RELATIVE 32P INCORPORATION (% 3.3 μmol/min/mg) (ERK2 [3]): 80 % 3.3 μmol/min/mg
- Kmin(app) (ERK2 [1]): 1.0 mM
- pattern and degree of ERK activation over time compared with ERK immunoprecipitation and blot immunolabeling assays (ERK1/2): faithfully reproduced

Molecule: EAIMSPRFIGRR (This sequence is based on TH-31 type 1 HUMAN.) [SEQ ID NO: 12]
- RELATIVE 32P INCORPORATION (% 3.3 μmol/min/mg) (ERK2 [3]): 41 % 3.3 μmol/min/mg

B1: . . . KNIVTPRTPPPS . . . (protein, listed as Bos taurus)
chain: AAQKRPSQRSKYLASASTMDHARHGFLPRHRDTGILDSLGRFFGSDRGAPKRGSGKDGHHAARTTHYGSLPQKAQGHRPQDENPVVHFFKNIVTPRTPPPSQGKGRGLSLSRFSWGAEGQKPGFGYGGRASDYKSAHKGLKGHDAQGTLSKIFKLGGRDSRSGSPMARR
- RELATIVE 32P INCORPORATION (% OF MBP) (ERK1): 100 % OF MBP
- pattern and degree of ERK activation over time compared with ERK immunoprecipitation and blot immunolabeling assays (ERK1/2): differed
- levels of protein kinase activity in cellular extracts (ERK1/2; PC12 extracts, no kinase purification, EGTA, calmidazolium, cAMP-dependent protein kinase inhibitor present): Higher levels of protein kinase activity
- Km (ERK2 [4]): 10 to 50 µM

Now from value to molecule:

- RELATIVE 32P INCORPORATION (% 3.3 μmol/min/mg) (ERK2 [3]): 29 % 3.3 μmol/min/mg
Molecule: AIMSPRFIGRR (This sequence is based on TH-31 type 1 HUMAN.) [SEQ ID NO: 11]

- RELATIVE 32P INCORPORATION (% OF MBP) (ERK1): 5 % OF MBP
- RELATIVE 32P INCORPORATION (% 3.3 μmol/min/mg) (ERK2 [3]): 7 % 3.3 μmol/min/mg
- Kmin(app) (ERK2 [1]): 1.8 mM
- Vmax(app) Relative (ERK2 [1]): 9
Molecule: KQAEAVTSPR (This sequence is based on TH-Ser31 (rat).) [SEQ ID NO: 7]

- RELATIVE 32P INCORPORATION (% OF MBP) (ERK1): <1 % OF MBP
Molecule: PTPSAPSPQPK (This sequence is TH (rat) Ser8.) [SEQ ID NO: 4]

- RELATIVE 32P INCORPORATION (% 3.0 μmol/min/mg) Mean (ERK2 [3]): 117 % 3.0 μmol/min/mg
- RELATIVE 32P INCORPORATION (% 3.3 μmol/min/mg) (ERK2 [3]): 100 % 3.3 μmol/min/mg
Molecule: YQAEAIMSPRFIGRR-NH2 [SEQ ID NO: 14]

- RELATIVE 32P INCORPORATION (% 3.0 μmol/min/mg) Mean (ERK2 [3]): 164 % 3.0 μmol/min/mg
Molecule: YQATGPLSPGPFRR-NH2 [SEQ ID NO: 16]

- RELATIVE 32P INCORPORATION (% OF MBP) (ERK1): <1 % OF MBP
Molecule: GRRQSLIEDAR (This sequence is TH (rat) Ser40.) [SEQ ID NO: 6]

- RELATIVE 32P INCORPORATION (% 3.3 μmol/min/mg) (ERK2 [3]): 1 % 3.3 μmol/min/mg
Molecule: IMVRGQSPR (This sequence is based on TH-Ser31 type 2 HUMAN.) [SEQ ID NO: 20]
